From the nanobody polyreactivity screen of Harvey et al. (2022)

Experiment: yeast display, Sf9 membrane polyspecificity reagent, FACS + sequencing; frameworks hold sequencing errors
In short: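 Sorting gates, low and high (top ~1%), were placed on anti-HA fluorescence to track expression and on streptavidin fluorescence to track reagent binding. A clone's polyreactivity label is taken from the gate it came out of. The reagent was 10% biotinylated, detergent-solubilized Sf9 membrane, applied for 1 hour at 4 °C to galactose-induced yeast display cells.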

| Sequence | polyreactivity (PSR sort gate) |
| --- | --- |
| QVQLVESGGGLVQAGGSLRLSCAASGRTFPYYTMGWYREAPGKERELVAAIDGSGDNTYYADSVKGRFTISRDNAKNTLYLHMNSLKPEHTAVYYCTADTGLGTRDFEKRDYWGQGTQVTVSS | low polyreactivity |
| QVQLVESGGGLVQAGGSLRLSCAASGRIFTTYAMGWYRQAPGKERELVAAISRSGGSTYYADSVKGRFTISRDNAKNTVYLQMKSLKPEDTAVYYCAAVPTSNSFRSSFYYWGQGTQVTVSS | high polyreactivity |
| QVQLVETGGGLVPAGGSLRLSCAASGSTFQRYAMGWYRQAPGKERELVAAITWSGGSTKYADSVKGRFTISRDNAKNTVYLQMNSMKPEDTAVYYCARTYGSSRWGQGTQVTVSS | low polyreactivity |
| QVQLVESGGGLVQAGGSLRLSCAAAGRTVPRYTMGWYRQAPGKEMELVAAISRGGSTNYAYSVKGLFTISRDNAKNTVYLVMNSLKPEDTAVYYCNADYWYDWKSYDYWGEGTQVTVSS | high polyreactivity |
| QVQLVESGRGLVQAGGSLRLSCAASGSTFQYYAMGWYRPATGKERELDAAINSRGTSTFYADSVKGRFTISRDNAKNTVYLQMNSLKPEDTAVDYCNARGPRYGNRYRNDYWGQGTQGTVSS | high polyreactivity |
| QVQLVESGVGLVHAGGSLRLSCAASGFIFVRYSIGWYRQAPGKEREFVASISWSGGSTYYADSVKGRFTISRDNAKNTVYLQMNSLKPEDTAVYYCAAYVRKDRSRGLYGYWGQGTQVTVSS | high polyreactivity |
| QVQLVESGGGLVQAGGSLRLSCAASGFIFYYYAMGWYRQAPGKERELVATITSGGGTYYADSVKGRFTISRDNAKNTVYVQMISLKPEDTAVYYCAKRDLEQSAFLGYDYWGQGTQVTVSS | low polyreactivity |
| QVQLVESGGGLVQAGGSLRLSCAASGRTFSYYAMGWYRQAPGKERELVARITYRGGRTYYADSVKGRFTISRDHAKNTVYLQMNSLKPEDTAVYYCNADAIYKRGGRDYWGQGTQVTVSS | high polyreactivity |
| QVQLVESGGGLVQAGGSLRLSCAASGRTFCRYPMGWYRQAPGKERELVAAISSSGITYYAESVKGRFTISRDNAKNTVYLQMNSLKPEDTEVYYCAVRWGRGFWGQGTQVTVSS | high polyreactivity |
| QVQLVESGGGLVQAGGSLRLSCAPSGSIFPSYAMGWYRQAPGKERELVAAISRSAGSTYYADSVKGRFTISRDNAKNTVYLQMNSLKPEDTAVYYCAADGYSSRYGYDYWGQGTQVTVSS | low polyreactivity |
| QVQLVESGGGLVQAGGSLRLSCAASGLILRKYAMGWYRQAPGKEREFVAAITQTGSRTYYADSVKVRFTISRDNAKYTVYFQMNSLIPEDTAVYYCNAVNYRSSRDSGYWGQGTQVTVSS | high polyreactivity |
| QVQLVESGGGLVQAAGSLRLSCAASGRTFVFYAMGWYRQAPGKERELVAAISDGDRTNYADSVKGRFTISRDNAKNTVYLQMNSLKPEDTAVYYCAADREFWWAVVYTYEYYYWGQGTQVTVSS | low polyreactivity |
| QVQIVESGGGLVQAGGSLRISCAPSGLIFAYYAMGRYRQAPGKERELVAAISSVGSTYYADSVKGRFTISRDNAKNTVYLQMNSLKPEDTAVYYCAAALYPYYWPEYNYWGQGTQVNVSS | high polyreactivity |
| QVQLVESGGGLVQAGGSLRLSCAASGRIFTKYAMGWYRQAPGKERELVAAISGSGGPTYYADSVKGRFTISRDNAKNTVYLQINSLKPEDTAVYYCGVPEIFDPKYQNDYWGQGTQVTVSS | low polyreactivity |
| QVQLVESGGGLVQAGGSLRLSCAASGRIFSKNAMGWYRQAPGKEMEFVATISYGDGSTYYADSVKGRFTISRDNAKNTVYLQMNSLKPEDTAVYYCAATIGHNGFDYWGQGTQVTVSS | low polyreactivity |
| QVQLVESGGGIVQAGGSLRLSCAASGSIQRYNDMGWYRQAPGKERELVAAISRSGGSTYYTDSVKGRFTISRDNAKNTDYLQMNSLKPEDTAVYFCYKASYTTVYAKYYYWGLGTQVTVSS | high polyreactivity |
| QGQLEESGGGLVQAGGSLRLSCAASGRTFGPYAMGRYRQAPGKERELVAAIRSAGSTYYADSVKGRFTISRDNAKNTVYLQMISLKPEDTAVYYCADDIARHLTGFAYYRLDYWGQGTQVTVSS | low polyreactivity |
| QVQLVESGGGLVQAGGSLRLSCAASGSTFESYAMGWYRQAPGKERELVAAISQNGGSTYYADSVKGRFTISRDNAKNTVYLQMNSLKPEDTAVYYCNADVYPYYRKPWMDYWGQGPQVTVSS | low polyreactivity |
| QVQLVDSGGGLVQAGGRLRLSCAASGFIYEPNAMGGYRQAPGKEMELVAAISSGGSTYADSVKGRFTISRDNAKNTVYLQMNSLKPEDTAVYYCAADSYYSVWGFYYWGQGTQVTVSS | low polyreactivity |
| QVQLVESRGGLVQAGGSLRLSCAASGSTFFHYAMGWYRQAPGKDRELVAAIDSNGGSTYYADSVKGRFTISRDNAKNTVYLPMNSLKPEDTAVYYCAADDLAEFEYDYWGQGTQVTVSS | low polyreactivity |
| QEQLVESGGGLVQAGGSLGLSCAASGLTFSYYAMRWYRQAPGKERELVAAIDYSGGTTYADSVKGRFTISRDNAKNTVYLQMNSLKPEDTAVYYCAAAPDGWFASGDEYWGQGTQVTVSS | high polyreactivity |

| Sequence | polyreactivity (PSR sort gate) |
| --- | --- |
| QVQLVESGGGLVQAGGSLRLSCAASGRIFFVYAMGWYRQAPGKERELVAAISVSDVSTSYADSVKGRFTISRDNAKNTVYLQMNSLKPEDTAVYYFNAGFRFYTYSRIAGEDYGGQGTQVTVSS | low polyreactivity |
| QVQLVESGGGLVQAGGSLRLSCAASGFTFGYYAMGWSRQAPGKESELLATITSSGASTYADSVKGRFTISRDNAKNTVYLQMNSLKPEDTAVYYCAADRLPSYWSWYGYDYWGQGTQVTVSS | high polyreactivity |
| QVQLVESGGGLDQEGGSLRLSCAASGNIFSSYLMGWYRQAPGKEREVVAAISSRGGSTYYADSVKGRFTISRDNAKNSVYLQMNSLKPEDTAVYYCAARTGRYYRRYDYWGQGTQVTLSS | high polyreactivity |
| QVQLVESGGGLVQAGGSLRLSCAGSGSTSYNDMGWYRQAPGKEREMGASITSSGDDTYYADSVKGRFTISRDNAKNTVYLQMNSLKPEDTAVYYCAAEDYHRHVGSDFVIDYDYWGQGTQVTVSS | low polyreactivity |
| QFQLVESGGGIVQAGGSLRLSCAASGFTFVYYAMGWYRQAPGKERQLVAAITRSAGSTYYADSVKGRFTISRDNAKNTVYLQMNSLKPEDTAVYYCAALNSRYSKAQRMDYWGQGTQVTVSS | low polyreactivity |
| QVQLVESGGGLVQAGGSLRLSCAASGSTFYSNVMGWYRQAPGKERELVAAISRSGGSTYYADSVKGRFTISRDNAKNTVYLQMNSLKPEDTAVYYCAARTYRRPYYSWGQGTQVTVSS | high polyreactivity |
| QVQLVESGGGLVQAGGSLRLSCAASGRTWFYAMGWYRQAPGKERELVAAISGSSGSTYYADSVKGRFTISRDNAKNTVYLQMNSLKPEDTAVYYCAADFWRFYYEYDYWGQGTQVTVSS | low polyreactivity |
| QVQLVESGGGLVQAGGSLRLSCAASGSTFSLYAMGWYRQAPGKERELVARISYTDGSTYYADSVKGRFTISRDNAKNTVYLQMNSLKPEDTAVYYCAAEAWYSYTLEDYWGQGTQVTVSS | low polyreactivity |
| QVQLVESGGGLVKAGGSLRLSCAASGSIFTRNAMGWYRQAPGKERELVAAIRSRGGSTYYADSVKGRFTISRDNAKNTVYLQMNSLKPEDNAVYYCAKKDNTYIFDYWGQGTQVTVSS | low polyreactivity |
| QVQLQESGGGLVQAGGSLRLSCAASGSIYDGFNMGWYRQAPGKEREFVAAISYGASTYYADSVKGRFTVSRDNAKNSVYLQMNSLKPEDTAVYYCAVYDELYHVLVYWGRGTQVTVSS | low polyreactivity |
| QVQLVESGGGLVQAGGSLRLSCAASGSTFVGYAMGWYSPAPGKERELVADIDSIGGSTYYADSVKGRFTISRDYANNTVYLQINSLKPEDTAVFYCAARRFDTALVLYDYWGPGTQVTVSS | low polyreactivity |
| QVQLVESGGGLVQAGGSLRLSCAASGFIFGYYAMGWYRQAPGKERELVAAISRSGGRTYYADSVKGRFTISRDNAKNTVYLQMNSLKPEDTAVYYCAKGSNRSRGYYWGQGTQVTVSS | high polyreactivity |
| QVQHVESGGGLVQAGGSLRLSCAASGRIFYRNAMGWYRQAPGKERELVASITSAGRTYYADSVKGRFTISRDNAKNTVYLQMNSLKPEDTAVYYCAVRVAVLLNLYGYWGQGTQVTVSS | low polyreactivity |
| QVHLVESGGGLVQAGGSLRISCAASGFTFRYNAMGWNRQAPGKERELVAAISRGTITNYADSVKGRFTISRDNAKNTVYLQMNSLKPEDTAVYYCAARYPGHFRFYYWGQGTQVTVSS | high polyreactivity |
| QVQLVESGGGLVQAGGSLRLSCAASGSIFVGYAMGWYRQAPGKEREVVAAISSSGTSTYYADSVKGRFTISRDNAKNTVYLQMNSLKPEDTAVYYCNARWYVPAYEFDYWGHGTQVTVSS | low polyreactivity |
| QVQLVESGGGLVQAGGSLRLSCAASGRTFRIYALGWYRQAPGTERELVATIDSGGSTNYADSVKGRFTISRDNAKNTVYFQMNSLKPEDTAVYYCNAEDKPWYYLAGQAEYDSWGQGTQVTVSS | low polyreactivity |
| QVQLVESGRGLFQAGGSLRLSCAASGFTFSLYAMGWYRQPPGKERELVAVISYRGGSTYYAYSVKGRFTISRDNAKNTVYLQMNSLKPEVTAVYYCARVVLHFSRYWWPVDYWGQGTQVTVSS | high polyreactivity |
| QVQHVESVGGLVQAGGSLRLSCAASGSIFEYNAMGWYRQAPGKERELVAAISWSSGTTYYADSVKGRFTISRDNAKNTVYLQMNSLKPEDTAVYYCNAGRYGKDSDYWGQGTQVTVSS | low polyreactivity |
| QVQLVESGGGLVQAGGSLRLSCAASGRIFNHYAMGWYRQAPGKERELVASITSGAGTNYADSVKGRFTISRDNAKNTVYLQMNSLKPEDTAVYYCNADLYDYYYSDGDYWGQGTQVTVSS | high polyreactivity |
| QVQLVESGGGLVQAGGSLRLSCAASGYTFLISAMGWYRQAPGKERELVAVISSGGSTSYADSVKGRFTISRDNAKNTVYLQMNSLKPEDSAVYYCAAALAGGRRGGDYWGQGTQVTVSS | low polyreactivity |
